Literature values in publication PMC2846645.
Where two headings read alike, the source gives them in different places.

Key:
Assay in all cases: surface plasmon resonance
[1] = target: GABAA receptor beta3 subunit 400-412 (UniProt P28472)
[2] = target: GABAA receptor gamma2 subunit Y365/Y367 motif (UniProt P18507)
[3] = target: GABAA receptor beta3 subunit 400-412 (UniProt P28472); remark: listed apart in the source

Substance: AP2 mu2 (from UniProt Q96CW1)
- Kd [1]: 1900 nM
- Kd [2]: 40 nM
- Kd [3]: 300 nM
